Results on two molecules are retold here after patent US20230303636A1 (UNIVERSITY COURT OF THE UNIVERSITY OF GLASGOW, published 2023).

The target of one assay is T1, pyocin AP41 (Pseudomonas aeruginosa (gene amplified …)).
T1 chain: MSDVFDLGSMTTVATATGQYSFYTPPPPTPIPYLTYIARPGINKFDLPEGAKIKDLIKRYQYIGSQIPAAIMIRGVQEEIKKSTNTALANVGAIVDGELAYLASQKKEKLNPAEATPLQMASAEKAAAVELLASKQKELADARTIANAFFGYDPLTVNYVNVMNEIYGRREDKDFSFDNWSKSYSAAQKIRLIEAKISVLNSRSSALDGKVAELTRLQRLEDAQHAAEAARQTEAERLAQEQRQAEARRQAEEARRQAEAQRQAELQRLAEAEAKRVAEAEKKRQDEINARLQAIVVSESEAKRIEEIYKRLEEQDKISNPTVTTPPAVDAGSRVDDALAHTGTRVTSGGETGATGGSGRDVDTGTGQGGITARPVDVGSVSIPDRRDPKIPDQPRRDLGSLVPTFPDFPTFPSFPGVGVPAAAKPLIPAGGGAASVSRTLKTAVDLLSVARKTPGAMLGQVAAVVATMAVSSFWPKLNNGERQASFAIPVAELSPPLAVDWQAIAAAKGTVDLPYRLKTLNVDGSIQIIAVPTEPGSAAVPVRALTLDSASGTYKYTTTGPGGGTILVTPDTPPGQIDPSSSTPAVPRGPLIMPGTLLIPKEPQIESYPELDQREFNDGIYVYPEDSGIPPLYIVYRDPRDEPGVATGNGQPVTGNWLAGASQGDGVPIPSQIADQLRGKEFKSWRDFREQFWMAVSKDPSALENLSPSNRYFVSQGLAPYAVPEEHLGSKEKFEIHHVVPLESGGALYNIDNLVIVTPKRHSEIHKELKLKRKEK
Briefly: co-expression in E. coli; complex purified on a His Trap column and by gel filtration.

Another assay concerns the target pyocin S2 (Pseudomonas aeruginosa, UniProt Q06584 1-689). Briefly: purification of the complex, method only by reference.

Sequence of pyocin S2 (Q06584 whole entry): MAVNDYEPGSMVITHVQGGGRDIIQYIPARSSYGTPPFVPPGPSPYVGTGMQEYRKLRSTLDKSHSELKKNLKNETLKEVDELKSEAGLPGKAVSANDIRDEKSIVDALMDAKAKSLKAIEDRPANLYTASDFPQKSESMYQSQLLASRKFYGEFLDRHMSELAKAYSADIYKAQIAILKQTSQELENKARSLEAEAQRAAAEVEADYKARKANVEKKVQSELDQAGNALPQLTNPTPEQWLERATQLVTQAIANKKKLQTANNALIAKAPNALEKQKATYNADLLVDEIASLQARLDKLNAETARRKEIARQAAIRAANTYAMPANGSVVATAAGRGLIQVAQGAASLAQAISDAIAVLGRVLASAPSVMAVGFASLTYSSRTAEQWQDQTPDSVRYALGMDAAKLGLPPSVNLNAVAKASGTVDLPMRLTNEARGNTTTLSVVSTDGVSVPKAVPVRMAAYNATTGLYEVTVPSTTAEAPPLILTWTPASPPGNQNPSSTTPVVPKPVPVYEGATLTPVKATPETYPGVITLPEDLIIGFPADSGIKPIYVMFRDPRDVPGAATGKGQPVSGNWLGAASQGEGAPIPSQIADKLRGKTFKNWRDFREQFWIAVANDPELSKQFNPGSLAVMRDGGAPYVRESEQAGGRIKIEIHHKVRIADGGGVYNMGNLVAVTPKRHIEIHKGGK

B1: pyocin AP41 immunity protein with C-terminal His6-tag (other)
chain: MDIKNNLSDYTESEFLEIIEEFFKNKSGLKGSELEKRMDKLVKHFEEVTSHPRKSGVIFHPKPGFETPEGIVKEVKEWRAANGLPGFKAG
notes: It is not explicitly tied to the C763 construct; also called ImAP41; not shown: C-terminal His6-tag from pET21a (XhoI site in place of the stop codon)
B1: the binding result in the assay with pyocin AP41 is listed as “binds”.

B2: pyocin S2 immunity protein (other)
chain: MKSKISEYTEKEFLEFVKDIYTNNKKKFPTEESHIQAVLEFKKLTEHPSGSDLLYYPNENREDSPAGVVKEVKEWRASKGLPGFKAG
notes: also called ImS2
As for B2, the binding result in the assay with pyocin S2 is “binds”.
